Laboratory results: publication PMC7828300

Target: AAV12 capsid viral protein (VP) (Adeno-associated virus 12)
Assay: cryo-EM structure

With “AAV12 capsid viral protein (VP) (natural protein)” the stoichiometry N was 60.
